Assays:
PARP1 WT = PARP1 WT (UniProt P09874 1-1014); experiment: fluorescence polarization; without HPF1; Kd only in Fig. 6f; SPR: 25 mM HEPES pH 7.4, 250 mM NaCl, 0.1 mM TCEP, 1 mM EDTA, 0.05% Tween20 (+/- 5 uM EB47); FP: 5 nM probe, 1.56-400 nM PARP1, buffer not stated; HXMS: 10 mM HEPES pD 7.0, 150 mM NaCl, RT; details: protein: recombinant; tags: N-terminal His6; label: internal FAM (GCTGAGC FAM-TTCTGG...); dumbbell, two hairpins, central nick
PARP1 WT;HPF1 = PARP1 WT;HPF1 (human?;human, UniProt P09874;Q9NWY4 1-1014;1-346, |); experiment: fluorescence polarization; 20 uM HPF1; P=0.014; SPR: 25 mM HEPES pH 7.4, 250 mM NaCl, 0.1 mM TCEP, 1 mM EDTA, 0.05% Tween20 (+/- 5 uM EB47); FP: 5 nM probe, 1.56-400 nM PARP1, buffer not stated; HXMS: 10 mM HEPES pD 7.0, 150 mM NaCl, RT; details: protein: recombinant;recombinant; tags: N-terminal His6;none (SMT sumo-like His-tag removed with ULP1); copies: 1;1; label: internal FAM (GCTGAGC FAM-TTCTGG...); dumbbell, two hairpins, central nick
PARP1 WT;HPF1, sequence (P09874 whole entry, chain 1 of 2): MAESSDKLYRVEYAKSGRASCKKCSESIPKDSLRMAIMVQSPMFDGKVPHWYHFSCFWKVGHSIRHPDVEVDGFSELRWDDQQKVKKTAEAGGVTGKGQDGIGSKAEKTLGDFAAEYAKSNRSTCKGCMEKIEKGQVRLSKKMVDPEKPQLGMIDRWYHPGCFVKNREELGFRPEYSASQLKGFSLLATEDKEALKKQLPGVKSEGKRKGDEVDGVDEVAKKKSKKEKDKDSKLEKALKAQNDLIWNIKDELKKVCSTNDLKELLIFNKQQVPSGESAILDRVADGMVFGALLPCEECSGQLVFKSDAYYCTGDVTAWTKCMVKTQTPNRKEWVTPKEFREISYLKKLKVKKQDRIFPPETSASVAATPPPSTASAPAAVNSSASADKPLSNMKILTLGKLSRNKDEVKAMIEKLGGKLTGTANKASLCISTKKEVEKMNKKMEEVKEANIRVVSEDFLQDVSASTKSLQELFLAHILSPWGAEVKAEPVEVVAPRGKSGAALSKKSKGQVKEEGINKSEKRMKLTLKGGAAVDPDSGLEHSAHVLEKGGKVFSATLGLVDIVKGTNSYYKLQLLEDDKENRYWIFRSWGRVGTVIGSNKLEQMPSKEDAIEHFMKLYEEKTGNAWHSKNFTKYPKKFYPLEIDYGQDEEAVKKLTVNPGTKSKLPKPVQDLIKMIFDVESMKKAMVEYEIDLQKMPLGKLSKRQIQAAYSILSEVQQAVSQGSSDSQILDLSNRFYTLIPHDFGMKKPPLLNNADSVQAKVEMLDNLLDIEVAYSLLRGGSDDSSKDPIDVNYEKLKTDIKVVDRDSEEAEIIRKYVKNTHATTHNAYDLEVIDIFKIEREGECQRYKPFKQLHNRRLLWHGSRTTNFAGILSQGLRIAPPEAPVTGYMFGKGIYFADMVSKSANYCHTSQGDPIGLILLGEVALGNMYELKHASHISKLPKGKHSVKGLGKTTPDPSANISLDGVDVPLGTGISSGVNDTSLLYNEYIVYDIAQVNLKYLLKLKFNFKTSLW
PARP1 WT;HPF1, sequence (Q9NWY4 whole entry, chain 2 of 2): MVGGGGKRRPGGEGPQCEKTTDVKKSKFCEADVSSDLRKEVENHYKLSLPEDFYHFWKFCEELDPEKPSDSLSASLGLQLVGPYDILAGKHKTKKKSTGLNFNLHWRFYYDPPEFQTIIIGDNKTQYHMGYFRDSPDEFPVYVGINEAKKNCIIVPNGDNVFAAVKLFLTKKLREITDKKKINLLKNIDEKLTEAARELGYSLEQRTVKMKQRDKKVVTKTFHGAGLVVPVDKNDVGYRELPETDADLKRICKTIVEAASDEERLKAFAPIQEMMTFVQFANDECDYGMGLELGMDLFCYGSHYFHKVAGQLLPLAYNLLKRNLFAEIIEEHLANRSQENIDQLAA

PARP1 R865A = PARP1 R865A (UniProt P09874 1-1014, R865A); experiment: fluorescence polarization; without HPF1; P=0.000039; SPR: 25 mM HEPES pH 7.4, 250 mM NaCl, 0.1 mM TCEP, 1 mM EDTA, 0.05% Tween20 (+/- 5 uM EB47); FP: 5 nM probe, 1.56-400 nM PARP1, buffer not stated; HXMS: 10 mM HEPES pD 7.0, 150 mM NaCl, RT; details: protein: recombinant; tags: N-terminal His6; label: internal FAM (GCTGAGC FAM-TTCTGG...); dumbbell, two hairpins, central nick
PARP1 R865A, sequence (P09874 whole entry R865A): as the sequence (P09874 whole entry, chain 1 of 2) above, with R865A counted along it

PARP1 R865A;HPF1 = PARP1 R865A;HPF1 (human?;human, UniProt P09874;Q9NWY4 1-1014;1-346, R865A|); experiment: fluorescence polarization; 20 uM HPF1; no further increase vs R865A alone (P=0.087, ns); SPR: 25 mM HEPES pH 7.4, 250 mM NaCl, 0.1 mM TCEP, 1 mM EDTA, 0.05% Tween20 (+/- 5 uM EB47); FP: 5 nM probe, 1.56-400 nM PARP1, buffer not stated; HXMS: 10 mM HEPES pD 7.0, 150 mM NaCl, RT; details: protein: recombinant;recombinant; tags: N-terminal His6;none (SMT sumo-like His-tag removed with ULP1); copies: 1;1; label: internal FAM (GCTGAGC FAM-TTCTGG...); dumbbell, two hairpins, central nick
PARP1 R865A;HPF1, sequence (P09874 whole entry R865A, chain 1 of 2): as the sequence (P09874 whole entry, chain 1 of 2) above, with R865A counted along it
PARP1 R865A;HPF1, sequence (Q9NWY4 whole entry, chain 2 of 2): as the sequence (Q9NWY4 whole entry, chain 2 of 2) above

PARP1 WT, sequence (P09874 whole entry): as the sequence (P09874 whole entry, chain 1 of 2) above

B1: FAM dumbbell with central nick (FP) (structured_DNA)
DNA: GCTGAGCTTCTGGTGAAGCTCAGCTCGCGGCAGCTGGTGCTGCCGCGA
binding result (PARP1 WT): binds
binding signal (PARP1 WT;HPF1): ~2 fold higher affinity than PARP1 WT alone
binding signal (PARP1 R865A): 4 fold higher affinity than PARP1 WT
binding result (PARP1 R865A;HPF1): binds

From PMC8602370, “HPF1 dynamically controls the PARP1/2 balance between initiating and elongating ADP-ribose modifications”
